First the molecules themselves.
B1: UBP3-associated protein BRE5 (Saccharomyces cerevisiae), P53741 (parent)
chain: MGVTVQDICFAFLQNYYERMRTDPSKLAYFYASTAELTHTNYQSKSTNEKDDVLPTVKVTGRENINKFFSRNDAKVRSLKLKLDTIDFQYTGHLHKSILIMATGEMFWTGTPVYKFCQTFILLPSSNGSTFDITNDIIRFISNSFKPYVLTDASLSQSNEENSVSAVEEDKIRHESGVEKEKEKEKSPEISKPKAKKETVKDTTAPTESSTQEKPIVDHSQPRAIPVTKESKIHTETVPSSTKGNHKQDEVSTEELGNVTKLNEKSHKAEKKAAPIKTKEGSVEAINAVNNSSLPNGKEVSDEKPVPGGVKEAETEIKPIEPQVSDAKESGNNASTPSSSPEPVANPPKMTWASKLMNENSDRISKNNTTVEYIRPETLPKKPTERKFEMGNRRDNASANSKNKKKPVFSTVNKDGFYPIYIRGTNGLREEKLRSALEKEFGKVMRITAADNFAVVDFETQKSQIDALEKKKKSIDGIEVCLERKTVKKPTSNNPPGIFTNGTRSHRKQPLKRKD
partner: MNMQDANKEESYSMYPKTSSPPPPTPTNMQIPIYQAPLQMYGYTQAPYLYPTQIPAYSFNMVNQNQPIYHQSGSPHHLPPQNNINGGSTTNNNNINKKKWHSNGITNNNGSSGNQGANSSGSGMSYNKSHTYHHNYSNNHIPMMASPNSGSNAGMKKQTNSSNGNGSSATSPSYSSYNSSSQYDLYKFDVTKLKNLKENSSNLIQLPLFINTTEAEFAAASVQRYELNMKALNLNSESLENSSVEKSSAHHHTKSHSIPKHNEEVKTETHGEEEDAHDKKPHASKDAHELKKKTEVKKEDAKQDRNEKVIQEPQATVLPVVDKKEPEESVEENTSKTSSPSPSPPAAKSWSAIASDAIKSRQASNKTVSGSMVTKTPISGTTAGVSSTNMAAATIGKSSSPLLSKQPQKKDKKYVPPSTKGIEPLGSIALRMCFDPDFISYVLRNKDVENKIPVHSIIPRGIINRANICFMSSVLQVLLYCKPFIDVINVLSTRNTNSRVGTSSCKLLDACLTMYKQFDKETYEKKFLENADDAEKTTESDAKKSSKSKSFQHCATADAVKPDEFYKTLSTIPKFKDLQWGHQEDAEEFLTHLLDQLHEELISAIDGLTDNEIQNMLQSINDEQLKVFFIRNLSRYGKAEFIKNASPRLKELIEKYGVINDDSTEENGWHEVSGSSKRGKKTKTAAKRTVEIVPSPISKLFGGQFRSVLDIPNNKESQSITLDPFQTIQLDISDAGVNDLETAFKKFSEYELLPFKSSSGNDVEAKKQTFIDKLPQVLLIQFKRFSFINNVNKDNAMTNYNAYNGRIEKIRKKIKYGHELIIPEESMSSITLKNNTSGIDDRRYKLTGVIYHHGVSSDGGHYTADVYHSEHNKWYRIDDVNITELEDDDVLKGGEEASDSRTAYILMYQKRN
B2: Ubiquitin carboxyl-terminal hydrolase 3 (Saccharomyces cerevisiae), Q01477 (parent)
chain: B1 partner
partner: B1 chain

19 variants from IntAct's records for PubMed 17632125 can be followed below.

The first test covers variants of B1. The following applies: with ubp3_yeast UBP3, Q01477.
E105A: the “effect of a mutation on the interaction” value was “with no effect”. Take K80A: the “effect of a mutation on the interaction” value is “with no effect”.

For the variant Y17A, the “effect of a mutation on the interaction” value is “with no effect”. Still for that read-out and setting: the entry for K82A is “with no effect”.

The next test covers variants of B1. The following applies: with ubp3_yeast UBP3, Q01477. This is another data set of the same source.
Y17A;K82A: the “effect of a mutation on the interaction” value is “decreasing interaction strength”.

Variants of B2 are the subject of another test. The following applies: with bre5_yeast BRE5, P53741.
N211A;F217A: the “effect of a mutation on the interaction” value is “decreasing interaction strength”. Same read-out and setting: the entry for N211A is “decreasing interaction strength”; for F217A it is “with no effect”. The same measure, in the same setting: the entry for L208A;F209A;I210A;N211A is “decreasing interaction strength”; for I210A it is “decreasing interaction strength”. The same measure, in the same setting: the result for T212A reads “with no effect”. Regarding E214A, the “effect of a mutation on the interaction” value was “with no effect”. The same measure, in the same setting: the result for R224A reads “with no effect”; that for L208A, “with no effect”. Same read-out and setting: the entry for L208A;F209A;I210A;N211A;F217A is “disrupting interaction strength”; for I210A;F217A it is “decreasing interaction strength”; for L208A;F209A it is “decreasing interaction strength”. As to F209A, the “effect of a mutation on the interaction” value was “with no effect”.

On to E216A, for which the “effect of a mutation on the interaction” value is reported as “with no effect”.
